Experimental data published in PMC11527279, “The SARS-CoV-2 ORF6 protein inhibits nuclear export of mRNA and spliceosomal U snRNA” (PLOS ONE, 2024).

Target: T1, GST-T7-ORF6-His (SARS-CoV-2, UniProt P0DTC6 1-61)
T1 construct: ORF6 protein of SARS-CoV-2, full-length recombinant protein; pGEX-T7-ORF6-His; T7 tag lies between GST and ORF6; also called GST-ORF6; not shown: GST, N-terminal, kept; T7, N-terminal, kept; His6, C-terminal, kept
T1 sequence: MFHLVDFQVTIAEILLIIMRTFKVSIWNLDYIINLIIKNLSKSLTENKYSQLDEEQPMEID
Conditions: both partners purified

B1: T7-ORF6-His (natural protein)
chain: MFHLVDFQVTIAEILLIIMRTFKVSIWNLDYIINLIIKNLSKSLTENKYSQLDEEQPMEID
notes: ORF6 protein of SARS-CoV-2, full-length recombinant protein; From pGEX-T7-ORF6-His (pGEX-6p-1 backbone); also called SARS-CoV-2 ORF6 protein; not shown: GST, N-terminal, cleaved; T7, N-terminal, kept; His6, C-terminal, kept
- binding result: binds
